Reference: patent US20130202594A1, “ALK1 Antagonists and Their Uses in Treating Renal Cell Carcinoma” (priority 2012, published 2013)
Entries after “also recorded” stand apart in the source; their conditions may differ.

Key:
advanced RCC = settings: cited from earlier work
[1] = tested on: angiogenesis in chick chorioallantoic membrane; test: CAM (chick chorioallantoic membrane) angiogenesis assay; assay type: in vivo
Excerpt: In preferred embodiments, an ALK1 ECD polypeptide binds to one or more of GDF5, GDF6, GDF7, BMP9 and BMP10. […] Binding may be assessed using purified proteins in solution or in a surface plasmon resonance system, such as a Biacore™ system. […] Bioassays for angiogenesis inhibitory activity include the chick chorioallantoic membrane (CAM) assay, the mouse corneal micropocket assay, or an assay known in the art for measuring the effect of administering isolated or synthesized proteins on implanted tumors. The CAM assay is described by O'Reilly, et al., in “Angiogenic Regulation of Metastatic Growth” Cell, 1994; 79 (2):315-328. Briefly, 3 day old chicken embryos with intact yolks are separated from the egg and placed in a petri dish. After 3 days of incubation, a methylcellulose disc containing the protein to be tested is applied to the CAM of individual embryos. After 48 hours of incubation, the embryos and CAMs are observed to determine whether endothelial growth has been inhibited. The mouse corneal micropocket assay involves implanting a growth factor-containing pellet, along with another pellet containing the suspected endothelial growth inhibitor, in the cornea of a mouse and observing the pattern of capillaries that are elaborated in the cornea. Other assays are described in the Examples.
VEGF and FGF are well-known to stimulate angiogenesis. A CAM (chick chorioallantoic membrane) assay system was used to assess the angiogenic effects of GDF7.
ALK1-Fc fusions were tested for anti-angiogenic activity in the CAM assay.
ALK1-Fc proteins and a commercially available, anti-angiogenic anti-VEGF monoclonal antibody were compared in the CAM assay. The ALK1-Fc proteins had similar potency as compared to anti-VEGF. The anti-VEGF antibody bevacizumab is currently used in the treatment of cancer and macular degeneration in humans.

[2] = tested on: collagen-induced arthritis; test: Murine collagen-induced arthritis (CIA) model of rheumatoid arthritis; assay type: in vivo, mouse; settings: bevacizumab treated mice; day 42
Procedure: RAP-041 is mALK1-Fc. Avastin™ is the anti-VEGF antibody bevacizumab.
The murine collagen-induced arthritis model is a well-accepted model of rheumatoid arthritis. […] Nonetheless, a dose-related trend is apparent.
By study termination at day 42 the incidence of arthritis had reached 10/10 in the vehicle control treated mice, 9/10 in the bevacizumab treated mice, 8/10 in the mALK1-Fc at 1 mg/kg treated group and 9/10 in the mALK1-Fc 10 mg/kg treated group. In the mALK1-Fc 25 mg/kg treated group disease incidence was lower at 6/10.

[3] = tested on: angiogenesis in chick chorioallantoic membrane; test: CAM assay of BMP9 and anti-BMP9 with or without VEGF; assay type: in vivo; settings: for effect on angiogenesis in the presence of VEGF: VEGF-mediated angiogenesis
Excerpt: A CAM (chick chorioallantoic membrane) assay system was used to assess the angiogenic effects of recombinant human BMP9 (rhB9) and anti-BMP9 monoclonal antibody (mabB9) (R&D Systems, Minneapolis, Minn., Cat. No. MAB3209). This antibody is known to neutralize BMP9/ALK1 signaling. See, e.g., Scharpfenecker et al., J Cell Sci. 2007 Mar. 15; 120(Pt 6):964-72; David et al., (2007); Blood March 1; 109(5):1953-61; David et al., Circ. Res. 2008 Apr. 25; 102(8):914-22.
In the absence of VEGF, both proteins were used at the 50 ng dosed 1×/day on days 1 and 3 in the 5-day cycle. […] However, the effects of the anti-BMP9 antibody are in remarkable contrast to the published literature.

CCN(CC)CCNC(=O)c1c(C)[nH]c(/C=C2\C(=O)Nc3ccc(F)cc32)c1C [sunitinib]
patients requiring dose reductions (advanced RCC; RCC patients, to manage toxicities): 50%

PDGF
angiogenic effect (stimulation of angiogenesis) [1]: relatively poor capability to induce angiogenesis

bevacizumab
incidence of arthritis [2]: 9/10

interferon-alpha
overall survival (advanced RCC; patients with advanced disease): 21.8 months

B1: GDF7: growth differentiation factor, ALK1 ligand tested in CAM assay (protein)
chain: TALAGTRTAQGSGGGAGRGHGRRGRSRCSRKPLHVDFKELGWDDWIIAPLDYEAYHCEGLCDFPLRSHLEPTNHAIIQTLLNSMAPDAAPASCCVPARLSPISILYIDAANNVVYKQYEDMVVEACGCR
angiogenic effect (stimulation of angiogenesis) [1]: stimulates angiogenesis with a potency that is similar to that of VEGF; also recorded: comparable to that of VEGF

B2: rhB9: recombinant human BMP9 (protein)
chain: SAGAGSHCQKTSLRVNFEDIGWDSWIIAPKEYEAYECKGGCFFPLADDVTPTKHAIVQTLVHLKFPTKVGKACCVPTKLSPISVLYKDDMGVPTLKYHYEGMSVAECGCR
angiogenic effect (stimulation of angiogenesis) [1]: relatively poor capability to induce angiogenesis
effect on angiogenesis in the absence of exogenous VEGF ([3]; 50 ng 1×/day on days 1 and 3): Neither BMP9 nor anti-BMP9 had a substantial effect on angiogenesis
effect on angiogenesis in the presence of VEGF [3]: inhibit VEGF-mediated angiogenesis
effect on angiogenesis in the presence of VEGF ([3]; listed as BMP9): substantial anti-angiogenic effect
